Test results published in patent publication US20240294624A1, “ANTI-ERYTHROPOIETIN ANTIBODY” (ANDREMACON S.R.L., priority 2021, published 2024).

Legend:
SHSY-5Y = assay: MTT cell viability assay; assay type: cell-based, human; conditions: 96 hours, 6 μg/ml
Description: K. Neuroblastoma cell line (SHSY-5Y) line is a cell line isolated from a bone marrow biopsy taken from a patient with neuroblastoma. SHSY cells are often used as in vitro models of oncological pathology and neuronal differentiation.

DLD1 = assay: MTT cell viability assay; assay type: cell-based, human; conditions: 96 hours, 6 μg/ml
Protocol: Cell viability was assessed by 3-(4,5-Dimethylthiazol-2-yl)-2,5-Diphenyl-tetrazoliumBromide (MTT) assay, as a function of redox potential (FIGS. 2-7). Cells (5×10^3/well) were seeded and cultured in 96-well plate for 24 h in Basal Medium (BM). Then, culture media were replaced with fresh media containing the specific treatments, or in BM as a control condition (CTR).
Test was performed in triplicate after 96 h of treatment, by replacing culture media with 100 μL of fresh media added with 10 μL of MTT 5 mg/ml in D-PBS. After 4 h of incubation, media were removed and cells were lysed with 100 μL of 2-propanol/formic acid (95:5, by vol) for 10 min. Then, absorbance was read at 570 nm in microplate reader.

cancer cells = assay: Neutralizing anti-EPO bioassay (MTT); assay type: cell-based; conditions: nineteen anti-EPO hybridoma culture supernatants compared; 96 h
Protocol: The cell-based assay was used to measure the capacity of each clone to neutralize EPO signaling. […] Optical density values (O.D.) were recorded, and neutralizing activity of each clone was expressed as percentage of viability of cells treated with clones respect to control condition, BM (FIG. 1A).The best n=3 final clones were selected and specific monoclonal antibodies were separated and purified in PBS at PH7.4 sterilized by membrane filtration (produced in culture supernatant and purified by Protein A/G). Furthermore, anti-EPO monoclonal antibodies were sequenced by the following protocol: total RNA was extracted separately from several batches of cultured hybridoma cells, cDNA were then synthesized by reverse transcription using oligo-dT primers, and VH and VL were finally amplified by PCR. VH and VL fragments, respectively amplified by IgG degenerate primers and Kappa-specific primers, are represented by gel electrophoresis (FIG. 1B), confirming that isotypes were IgG Kappa.

[1] = Plasma pharmacokinetics by SPR after single i.v. injection; assay type: in vivo; conditions: mice with glioblastoma xenograft, single i.v. 10 mg/kg
Protocol: The ligands hEPO and BSA (Sigma-Aldrich, Italy, used as reference) were immobilized using amine-coupling chemistry on parallel channels of a CMD700L (Xantec GmbH) sensor chip. Briefly, surface was activated with sulfo NHS/EDC according to manufacturer's recommendation; hEPO and BSA were diluted at a concentration of 400 and 30 μg/mL in acetate buffer, pH 4.0 and 4.5, respectively. These solutions were flowed for 5 min at a rate of 30 μL/min over the activated chip surface. The remaining activated groups were blocked with ethanolamine, pH 8.0.
The analyte solutions (e.g. control plasma containing spiked anti-EPO (C4) antibody, or plasma/tissue samples from treated mice) were injected so that they flowed simultaneously on both immobilized hEPO and the reference surface. Dissociation was measured in the following 10 minutes. All of these assays were carried out at 25° C. […]
This method can thus allow to determine the plasma and tissue concentrations of antibody, on the basis of an appropriate calibration curve (FIG. 26A). The Lower Limit of Detection calculated was ˜0.5 μg/mL (˜3.3 nM), which corresponding to a LLD of 5 μg/mL in undiluted plasma.
The pharmacokinetic (PK) profile of anti-EPO (C4) was assessed after single i.v. injection in mice models for glioblastoma. In particular, the antibody concentrations were measured at different time points after treatment (from 6 hours to 1 week) in: […]

A2780 = assay: MTT cell viability assay; assay type: cell-based, human; conditions: 96 hours, 6 μg/ml
Description: I. Ovarian cancer cell line (A2780); ovarian cancer cells used in toxicity testing, drug screening and genetic cancer studies.

[2] = Tissue distribution by SPR (tumor, liver, kidney); assay type: in vivo, mice
Protocol: Tumor tissues were analyzed after their homogenization in TBST (1 g/2 mL) with an Precellys ysing Kit tubes, ultracentrifugation for 1 h at 110000 g and 1:2 dilution of the supernatant into optimized TBST buffer.
The pharmacokinetic (PK) profile of anti-EPO (C4) was assessed after single i.v. injection in mice models for glioblastoma. In particular, the antibody concentrations were measured at different time points after treatment (from 6 hours to 1 week) in:
1) plasma, to determine the main PK parameters (mainly half-time of elimination and volume of distribution); 2) tumor, to assess the antibody presence in the target tissue; 3) in kidney and liver to evaluate the elimination route.
When tumor masses reached about 500 mg, animals were treated i.v. with 10 mg/kg of anti-EPO (C4) antibody. Blood samples were collected from the retroorbital plexus under isoflurane anesthesia at 4, 24, 48, 72, 120, and 168 h from treatment (FIG. 26B). Mice were sacrificed by cervical dislocation. Tumors were collected. To obtain plasma, blood samples were centrifuged at 4000 rpm for 10 min at 4° C. All samples were immediately frozen in dry ice and then stored at −20° C. until analysis. Four mice were used at each time point.

B1: anti-EPO (C4): isolated anti-Erythropoietin monoclonal antibody, VL SEQ ID NO:6, VH SEQ ID NO:14, hybridoma DSM ACC 3370 (antibody, listed as Homo sapiens, V domains shown)
VH: EVKLQESGGGLVQPGGSLKLSCAASGFTFSTYTMSWVRQTPEKRLEWVAYISNGGDRTYYPDTVKGRFTISRDDAKNTLFLQMSSLKSEDTAMYYCARHNITTVPFTMDYWGQGTSVTVSS
VL: DIVLTQSPASLAVSLGQRATISCRASESVDYYGTGLMQWYQQRPGQPPKLLIYGASNVGSGVPARFSGSGSGTDFSLNIHPVEGDDIAMYFCQQTRKVPSTFGGGTKLEIK
modifications: VH amino acid sequence; VL amino acid sequence
cells initially plated dead (SHSY-5Y): 62% | cells initially plated dead (DLD1): 73% | neutralizing activity (inhibition of cancer cell viability) (cancer cells): higher neutralizing activity | half-time of elimination [1]: about 4.4 days | cells initially plated dead (A2780): 63% | antibody distribution tumor vs kidney and liver ([2]; i.v. 10 mg/Kg, SPR): higher levels of antibody in the tumoral tissues respect to kidney and liver | antibody levels in tumor tissues, PK profile ([2]; tumor, i.v. 10 mg/kg): levels were measurable, with a bell-shaped PK profile
